From the nanobody polyreactivity screen of Harvey et al. (2022)

Test: yeast display, Sf9 membrane polyspecificity reagent, FACS + sequencing; frameworks hold sequencing errors
Procedure, shortened: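 In a synthetic yeast display library (Saccharomyces cerevisiae BJ5465), nanobody expression was induced with galactose for 36–48 hours. FACS gates were set low and high (top ~1%) using anti-HA fluorescence for expression and streptavidin fluorescence for binding of the Sf9 membrane reagent. Each polyreactivity label is drawn from the gate of origin.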

Sequence | polyreactivity (PSR sort gate)
QVQLVESGGGIVQAGGRLRLSCDASGSTFSRYTMGWYRQAPGKEREFVAAIRTSGGRTYEDSVKGRFTISRDNAKNTVYVQMNSLKPEDTAVYYCAATRYYGYNTKYEYWGQGTQVTVSS | high polyreactivity
QVQLVESGGGLVQAGGSLRLSCAASGSTFDYYDMGWYRQAPGKERELVATITSGGSTNYADSVKGRFTISRDNAKNTVYLQMNSLKPEDTAVYDCAADIGGDGEGYDYWGQGTQVTVSS | low polyreactivity
QVQLVESGGGLVQAGGSLRLSCAASGFIFKIYTMGWYRQAPGKERELVAAITRRGGRTFYADSVKGRFTISRDNAKNTVYLQMNSLKPEDTAVYYCNAGTKYGTYIATGALKHDYWGQGTQVTVSS | low polyreactivity
QVQLVESGGGLVQAGGSLRLSCAASGRIFGYNAMGWYRPAPGNERELVAAISWSGGNTYYADSVKGRFTISRDHAKNTVYLQMNSLKPEDTAVYYCNASPYRYRPSEYDYWGQGTQVTVSS | high polyreactivity
QVQLVESGGGLVQAGGSLRLSCAASGSTLFSYAMGWYRQAPGKEREFVAAISRRGGSTYYEDSVKGRFTISRDYAKNTVYLQMNSLKPEETAVYYCAARDSSYNWYGYWGQGTQVTVSW | high polyreactivity
QVQLVESGGGLVQAGGSLRLSCAASGRIFSRNARGWYRQATGKERELVAAITARSGTTFYADSVKGRFTISRDNAKNTVYLQMNSLKPEDTAVYYCAADGSPSLLDYWGQGTQVTVSS | high polyreactivity
QVQLVESGGGLVQAGGSLRLSCAASGSTFDRYAMGWYRQAPGKERELVAAISWSAGRTYYADSVKGRFTISRDNAKNTVYLQMNSLKPEDTAVNYCAADQIVSGTYDYYWGQGTQVTVAS | low polyreactivity
QVQLEESGGGLVQAGGSLRLSCAASGITFISYAMGWYRQAPGKERELVAVISKSGGRTYYADSVKGRFTISRDNAKNTVYLQMNSLKPEDTAVYYCAATKRYASGMYYWGQGTQVTVSS | high polyreactivity
QVQLVESGGGLVQAGGSLRLSCAASGRIFTTYAMGWYRQAPGKERELVAAISRSGGSTYYADSVKGRFTISRDNAKNTVYLQMNSLKPEDTAVYYCAARRRQEHVGRSSYARYDYWGQGTQVTVSS | high polyreactivity
QVQLVESGGGLVQAGGSLRLTWEAYGFTFKYYPMGWYRQAPGKEWELVADITRSGGSTYYADSVKGRFTISRDNAKITVYLEMYILKPEDTAVYYCAVDPVRYQYSYDYWCQGTQVTVSS | high polyreactivity
QVQLVESGGGLVQAGGSLRLSCAASGRLSDNVMGWYRQAPGKERELVAAISSSGGTTYYADSVKGRFTISRDNAKNTVYLQMNSLKPEDTAVYYCNARTRGKMDYWGQGTQVTVSS | high polyreactivity
QVQLVESGGGLVQAGGSLRLSCAASGLIFTAYAMGWYRQAPGKERELVAAIDWRGGSTSYADSVKGRFTISRDNAKNTVYLQMNSLKPEDTAVYYCAADYYSKYVRFGYWGQGTQVTVSS | high polyreactivity
QVQLVESGRGLVQAGGSLRLSCAASGITFGYYAMGWSRQEPGKQSELVAAISFNGASTYYADSVKGRFTISRDNAKNTVYLQMNSMKPVDNAVYYCNRSTSYAQYFDVMDYWGQGTQVTVSS | low polyreactivity
QVQLVESGGGLVQAGGSLRLSCAASGRIFGGYAMGWYRQAPGKERELVAAIRDSGRTYYADSVKGRFTISRDNAKNTVYLQMNSLKPEDTAVYYCAADAHSSYSPFRWYDYWGQGTQVTVSS | low polyreactivity
QVQLVESGGGLVQAGGSLRLSCAASGRIFKGNGMGWYRQAPGKERELVAAISSGGTYYADSVKGRFTISRDNAKNTVYLQMNSLKPEDTAVYYCAAQHRGVQVTFGEYDYWGQGTQVTVSS | low polyreactivity
QVKLVQSGGGLVEAGGSLLLSCAASGRIFDQYAMGWYRPAPGKERELVAAITTSGDNTYYADSVKGRFTISRDNAKNTVYLQMNSLKPEDTAVYYCKVDIDTFWYGSDYWGQVTQVTVSS | high polyreactivity
QVQLVESGGGLVQAGGSLRLSCAASGSTLYRYAMGWYRQAPGKERELVAAISSAGSTHYADSVKGRFTISRDNAKNTVYLQMNSLKTEDTAVYYCADKRYLKYGYWGQGTQVTVSS | high polyreactivity
QVQLVESGGGLVQAGGSLRLSCAASGYIFSRYAMGWYRPAPGKERELVAAITRSGTRTYYADSVKGRFTISRDNAKNTVYLQMNSLKPEDTAVYYCAKQYLYSSGFDYWGQGTQVTVSS | high polyreactivity
QVQLVESGGGLVQAGGSLRISCAASGLTFYYNAMGWYRQAPGKDRELVATITWRGGRTYYADSVKGRFTISRDNAKNTVYLQMNCLKPEDTAVYYCAAGYFSQRLYLWFGYWGQGTQVTVSS | high polyreactivity
QVQLVESGGGLVQAGGSLRLSCAASGITFSEYAMGLYRQAPGKERELVAAITSGGNTYYADSVKGRFTISRDNAKNTVYLQMNSLKPEDTAVYYCAATFSSAFAYYYWGQGTQVTVSS | low polyreactivity
QVQLVESGGGLVQAGGILRLSCAASGITFGRNAMGWYRQAPGKERELVAAITISGGGTYYADSVKGRFTISRDNAKNTVYLQMNSLKPEDTAVYYCAADRSTVWVHYPHAGGSWGHGTQVTVSS | high polyreactivity
QVQLVESGGGLVQAGGSLRLSCAASGFTFFSNAMGWYIQAPGKERELVAAITSSGGSTYADSVKGRFTISRDNAKNTVYLQMNSLKPEDTAVYYCAADAQAPPGGFKEYDYWGQGTQVTVSS | low polyreactivity

Sequence | polyreactivity (PSR sort gate)
QVQLVESGGGLVQAGGSLRLSCAASGITFGYYAMGWSRQAPGKERELVAAISWSGGRTYYADSVKGRFTMSRDNAKNTVYLQMNSLKPEDTAVYYCAADYWYYRGGYPMDYWGQGTQVTVSS | high polyreactivity
QVQLVESGGGLVQAGGSLRLICAASGYTFDYNAMGWYRQAPGKEREFVAAIDWSGGNTYYADSVKGRFTISRDNAKNTVYLQMNSLKPEDTAVYYCNTVTEAVTRRYDYWGQGTQVTVSS | low polyreactivity
QVHLVESGGGLVQAGGSLRLSCAASGRIFGEYAMGWYRQAPGKERELVAAINSCGTSTNYADSVKGRLTFSRDNAKNTVYLQMNSLKPEDTAVYYCNAVGTYRPEYDSWVQGTQVTVSS | low polyreactivity
QVQLVESGGGLVQAGGSLRLSCAASGSIFNRYTMGSYRQAPGKEREFVAAISSSGTSTYYADSVKGRFTISRDNAMNTVYLQMNSLKPEDTAVYYCAADYYRTPKSGSSGLDYWGQGTQVTVSS | low polyreactivity
QVQLVESGGGLVQAGGSLRLSCAASGSIFEYNDMGWYRQAPGKERELVAAISWNGGSTYYADSVKGRFTISRDNAKNTVYLPMNSLKPEETAVYYCNTRYSPGYQGTEVDYWGQGTQVTVSS | low polyreactivity
QVQLVESGGGLVQAGGSLRLSCAASGSTFSHYAMGLYRQAPGKERALVAAISSGANTYYADSVKGRFTISRDNAKNTVYLLMNSLKPEDTAVYYCAADYYLAYIFPYDYWGQGSQVTVSS | low polyreactivity
QVQLVESGGGLVQAGGSLRLSCAASGIIFRLYGMGWYRPAPGKAREFVATITWRGGRTNYADSVKGRFTISRDNAKNTVYLLMNSRKPEDTADYYCAKDVRYARSNEYDSWGQGTQVTVSS | low polyreactivity
QVQLVESGGGLVQAGRSLRLSCAASVSIFAGYAMGWYRQAPGKERELVAGISYSGGRTYYADSVKGRFTISRDNAKNTVYLQMNSLKPEDTAVYYCNARFVRVRKGYGYWGLGTQVTVSS | high polyreactivity
QVQLVESGGGLVQAGGSLRLSCAASVSIFDSYAMAWYRQAPGKERELVAAISKRGGSTYYADSVKGRFTISRDTAKNTVYLQMNCLKPEDTAVYFCAAVYSQARSKAVYSEYYYWGLGTQVTVSS | high polyreactivity
QVQLVESGGGLVQAGGSLRLSCAASGSTLGRYTLGWYRQAPGNERELVAAIRASGTSTYYADSVKGRFTISRDNAKNTVYLQMNSLKPEDTAVYYCNALQFGTVRLDSWGQGTQVTVSS | low polyreactivity
QVQLVESGGGLVQAGGSLRLSCASSGRIFDYNAKGWYRQAPGKERELVAAINSGGSTYADSVKGRFTISRDNAKNTVDLQMNSLKPEDTAVYYCAKSLGQTDWEYDSWGQGTQVTVSS | low polyreactivity
QVQLVESGRGLVQAGGSLRLSCAASGGIFTDYTMGWYRQAPGKERELVAAITWTGGSTYYADSVKGRFTISRDNAKNTFYLQMNSLKPEDSAVYYCAADDYWVNLVYWGQGTQVTVSS | low polyreactivity
QVQLVESGGGIVQAGGSLRLSCAASGYTYPRYTMGWYRQAPGKERELVAVIRRSGGTHYADSVKGRFTISRDNAKNTVYLHMNRLKPEETAVYYCAVVSFLPNIPYGYWGQGTQVTVSS | high polyreactivity
QVQLVESGGGLVQAGGILRVSCAASGRIFRFYAMGWYRQAPGKERELVADISRRGGSTYYADSVKGRFTISRDNAKNTVYLQMNSLKPEDTAVYYCNARWYRTGSTYHDDYWGQGTQVTVSS | high polyreactivity
QVQLVESGGGLVQAGGSLRLSCAASGYIFTSYAMGWYRQAPGKERELVATITTGGSTYYADSVKGRFTISRDNAKNTVYFQMNSLKPEDTAVYYCNAVLHGWYDYWGQGTQVTVSS | low polyreactivity
QVQLVESGGGLVQAGGSLRLSCAASGRTLWWYAMAWYRQAPGKERELVAAIDYSDGNTYYADSVKGRFTISRDNAKNTVYLQMNSLKPEDTAVYYCAAEGYYNYGSYYWGQGTQVTVSS | high polyreactivity
QVQLVESGGGLVQAGGSLRLSCAASGRIFRDYVMGWYRQAPGKERELVAAISRGGSTYYADSVKGRFTISRDNAKNTVYLQMNSLKPEDTAVYYCAASWRSYSQLDYYWGQGTQVTVSS | high polyreactivity
QVQLVESGGGLVQAGGSLRLSCAASGRIFPENAMGWYRQAPGTERELVAAISKNGGRTYYADSVKGRFTISRDNAKNTVYLQMNSLKPEDTAVYYCNRRVQARRYRYDYWGQGTQVTVSS | high polyreactivity
QVQLVESGGGLVQAGGSLRLSCAASGLTLAWYAMGWYRQAPGKERELVAAISWSGDSTYYADSVKGRFTISRDNAKNTVYLQMNSLKPEDTEVYYCATRVYGGYGYWGQGTQVTVSS | high polyreactivity
QVQLVESGGGLVQAGGSLRLSCAASGRTFWTKAMGWYRQAPGKEREFVAAISWRGASTFYADSVKGRFTISRDNAKNTVYLQMNSLKPEDTAVYYCAAESYIGKYGSYDYWGQGTQVTVSS | low polyreactivity
QVELVESGGGLVQAGVSLRLSCAASGIISRGYAMGWYRQAPGKERELVAAISRSGGTTYYADSVKGRFTISRDNAKTTVYLQMNSLKPEDTAVYYCAARSKYFGYWGQGTQVTVSS | high polyreactivity
